According to article doi:10.1101/2022.04.07.487468:
Read-outs that look alike come from different tables or passages of the source.

What was measured:
[1] = molecular target: memGFP (zebrafish | not stated); test: fluorescence cross-correlation spectroscopy
[2] = molecular target: mCherry-xRor2 (not stated (prefix x in xRor2; Xenopus from memory)); test: FRET or BRET
[3] = molecular target: Ror2-mCherry (not stated (xRor2 or zebrafish Ror2 cDNA cloned)); test: fluorescence cross-correlation spectroscopy
[4] = molecular target: Ror2-mCherry (not stated (xRor2 or zebrafish Ror2 cDNA cloned)); test: fluorescence cross-correlation spectroscopy; remark: listed apart in the source
[5] = molecular target: zfRor2-ΔCRD-mCherry (zebrafish); test: fluorescence cross-correlation spectroscopy
[6] = molecular target: Ror2-mCherry (not stated (xRor2 or zebrafish Ror2 cDNA cloned)); test: fluorescence cross-correlation spectroscopy; remark: listed apart in the source

Row | Kd [1] [µM] | FRET efficiency [2] [%] | Kd [3] [µM] | Kd [4] [µM] | Kd [5] [µM] | Kd [6] [µM] | Molecule
1 | > 9.3 | – | – | – | – | – | cytosolic mCherry
2 | – | 11.3 to 13 | 0.45 | 3.56 | > 6.68 | 0.311 to 0.476 | zfWnt5b-GFP (ligand) QLLVVANSWWSLAMNPIQRPEMYIIGAQPLCSQLTGLSQGQRKLCQLYQDHMVYIGEGAKTGIKECQYQFRQRRWNCSTVDNTSVFGRVMHIGSRETAFTYAVSAAGVVNAVSRACREGELSTCGCSRAARPRDLPRDWLWGGCGDNVNYGYRFAREFVDAREREKNYPRGSVEHARTLMNLQNNEAGRMAVYNLANVACKCHGVSGSCSLKTCWLQLADFRRVGEFLKEKYDSAAAMRINRRGKLELVNNRFNPPTGEDLVYIDPSPDYCLRNETTGSLGTQGRLCNKTSEGMDGCELMCCGRGYDQFKTYKHERCHCKFHWCCYVKCKRCTSLVDQFVCK
